Here are results for six molecules from patent publication US20230002466A1 (ELPIS BIOPHARMACEUTICALS, published 2023).

Residue numbers refer to the chain shown, from its start. Names and notes keep the numbering of the source.

In one assay the target is T1, human IL2Rα (human, UniProt P01589 22-213, limits assumed).
T1 construct: also called IL2α; CD25
T1 sequence (looked up): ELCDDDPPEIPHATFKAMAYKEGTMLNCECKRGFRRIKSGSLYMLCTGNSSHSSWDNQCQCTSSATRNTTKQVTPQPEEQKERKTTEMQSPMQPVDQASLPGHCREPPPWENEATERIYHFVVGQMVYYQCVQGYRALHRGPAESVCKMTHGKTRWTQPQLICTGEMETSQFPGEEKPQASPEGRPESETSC
The assay can be described thus: ELISA, receptor coated, anti-human Fc HRP. The method, then:
(§1) For bivalent Fc-fusion proteins, human IL2Rα, and human IL2Rβ were each immobilized in a 384 well plate at final concentration of 2 μg/mL in 1×PBS in total volume of 25 μL per well. The plate was incubated overnight at 4° C. followed by blocking with 80 μL of superblock per well for 1 hour. The purified engineered IL2 mutant Fc fusion protein at 100 nM was 3-fold serial diluted 12 times. Each dilution was added to IL2Rα and IL2Rβ wells in parallel. The engineered IL2 mutant binding was detected by adding 50 μL of anti-human Fc HRP diluted at 1:5000 in 1×PBST. In between each step, the plate was washed 3 times with 1×PBST in a plate washer. The plate was then developed with 25 μl of TMB substrate for 5 mins and stopped by adding 25 μl of 2N sulfuric acid. The plate was read at OD450 nm Biotek plate reader and the EC50 was analyzed with Prism 8.1 software.
For orientation: In an ELISA, binding on a coated surface is turned into a signal by an enzyme label.

Another assay has as its target T2, human IL2Rβ (human, UniProt P14784 27-239).
T2 construct: also called IL2β; CD122
T2 sequence (looked up): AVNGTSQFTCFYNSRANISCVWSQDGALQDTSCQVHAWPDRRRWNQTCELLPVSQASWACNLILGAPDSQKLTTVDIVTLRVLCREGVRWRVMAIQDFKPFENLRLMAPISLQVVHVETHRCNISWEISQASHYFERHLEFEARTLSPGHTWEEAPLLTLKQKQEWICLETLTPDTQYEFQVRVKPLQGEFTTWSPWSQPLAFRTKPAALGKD
The assay is described as follows: ELISA, receptor coated, anti-human Fc HRP. As for the experimental part:
as §1

B1: EP081 (Fc fusion)
chain: ATPTSSSTKKTQLQLEHLLLDLQMILNGINNYKNPKLTRMLTFKFYMPKKATELKHLQCLEEELKPLEEVLNLAQSKNFHLGVGDTIDNINVLVKELKGSETTFMCEYADETATIVEFLNRWITFCQSIISTLTEPKSCDKTHTCPLCPAPEAAGGPSVFLFPPKPKDTLMISRTPEVTCVVVDVSHEDPEVKFNWYVDGVEVHNAKTKPREEQYNSTYRVVSVLTVLHQDWLNGKEYKCKVSNKALGAPIEKTISKAKGQPREPQVYTLPPSRDELTKNQVSLTCLVKGFYPSDIAVEWESNGQPENNYKATPPVLDSDGSFFLYSKLTVDKSRWQQGNVFSCSVMHEALHNHYTQKSLSLSPGK
For B1, in the assay with human IL2Rα, the EC50 is 87 pM and the “relative activity IL2Rα (EC50: fold) against EP085” value was -1.73 fold. In the assay with human IL2Rβ, the 50% effective concentration (EC50) was determined as 200 pM and the “relative activity IL2Rβ (EC50: fold) against EP085” value turned out to be 1530 fold.

B2: EP003-Fc, Bivalent (EP082) (Fc fusion)
chain: APTSSSTKKTQLQLEHLLLDLQMILNGINNYKNPKLTRMLTFKFYMPKKATELKHLQCLEEELKPLEEVLNLAQSKNFHLGVTDSISNAIVLARELKGSETTFMCEYADETATIVEFLNRWITFCQSIISTLTEPKSCDKTHTCPLCPAPEAAGGPSVFLFPPKPKDTLMISRTPEVTCVVVDVSHEDPEVKFNWYVDGVEVHNAKTKPREEQYNSTYRVVSVLTVLHQDWLNGKEYKCKVSNKALGAPIEKTISKAKGQPREPQVYTLPPSRDELTKNQVSLTCLVKGFYPSDIAVEWESNGQPENNYKATPPVLDSDGSFFLYSKLTVDKSRWQQGNVFSCSVMHEALHNHYTQKSLSLSPGK
notes: Human IgG1 with L234A, L235A, P329G
Turning to B2, in the assay with human IL2Rα, it took 28 pM to reach a half-maximal effect (EC50) and the “relative activity IL2Rα (EC50: fold) against EP085” value amounted to 1.78 fold. Also, in the assay with human IL2Rβ, the EC50 was determined as 250 pM and the “relative activity IL2Rβ (EC50: fold) against EP085” value is 1190 fold.

B3: EP080 (Fc fusion)
chain: B2 chain with K9E, E15K, G81K, V82W, T83G, S85A, I86V, I90R, R94G, E95A
As for B3, in the assay with human IL2Rα, the response was half-maximal at 56 pM (EC50) and the “relative activity IL2Rα (EC50: fold) against EP085” value was -1.17 fold. In addition, in the assay with human IL2Rβ, the EC50 is 230 pM and the “relative activity IL2Rβ (EC50: fold) against EP085” value was found to be 1280 fold.

B4: EP083 (Fc fusion)
chain: B2 chain with R38E, G81E, V82P, T83S, S85V, A89I, I90N, A93V, R94Q
On to B4, for which, in the assay with human IL2Rα, the EC50 was 46 pM and the “relative activity IL2Rα (EC50: fold) against EP085” value was 1.09 fold. In the assay with human IL2Rβ, the EC50 is 280 pM and the “relative activity IL2Rβ (EC50: fold) against EP085” value came to 1080 fold.

B5: EP004-Fc, Bivalent (EP078) (Fc fusion)
chain: B2 chain with G81C, V82P, S85T, S87E, A89I, I90T, A93I, R94Q
notes: as for B2
As for B5, in the assay with human IL2Rα, the EC50 was 41 pM and the “relative activity IL2Rα (EC50: fold) against EP085” value was determined as 1.24 fold. In addition, in the assay with human IL2Rβ, the EC50 was 2100 pM and the “relative activity IL2Rβ (EC50: fold) against EP085” value was 142 fold.

B6: EP084 (Fc fusion)
chain: B2 chain with G81T, V82A, T83E, S85V, I86V, S87T, A89I, I90T, A93V, R94Q
Turning to B6, in the assay with human IL2Rα, the EC50 came out at 41 pM and the “relative activity IL2Rα (EC50: fold) against EP085” value came to 1.23 fold. In addition, in the assay with human IL2Rβ, the EC50 was 2600 pM and the “relative activity IL2Rβ (EC50: fold) against EP085” value came out at 117 fold.

As a reminder, the EC50 is the midpoint of the concentration-response curve. A higher EC50 goes with lower potency in that assay.
